Measurements published in article PMC8523169, “Competitive binding of MatP and topoisomerase IV to the MukB hinge domain” (eLife, 2021).
Where two headings read alike, the source gives them in different places.

Experiments:
[1] = biological target: the molecule itself; assay: native MS; proteins buffer exchanged into 200 mM ammonium acetate pH 8.0, alone or mixed in different ratios (two or three components, with or without 50 bp DNA), 10 min on ice
[2] = biological target: T1, MukB long hinge (LH; amino acid residues 568–863) (E. coli, UniProt P22523 568-863); assay: as above; conditions: both partners purified
T1 construct: MukB, E. coli, residues 568-863: dimeric globular hinge domain and 20% of the coiled-coil region; also called LH (MBP cleaved); LH2; source: NEBExpress cells (pMAL-c5X), purified (amylose, Factor Xa cleavage, HiTrap Q XL, SEC); not shown: MBP, N-terminal, cleaved
T1 sequence (looked up): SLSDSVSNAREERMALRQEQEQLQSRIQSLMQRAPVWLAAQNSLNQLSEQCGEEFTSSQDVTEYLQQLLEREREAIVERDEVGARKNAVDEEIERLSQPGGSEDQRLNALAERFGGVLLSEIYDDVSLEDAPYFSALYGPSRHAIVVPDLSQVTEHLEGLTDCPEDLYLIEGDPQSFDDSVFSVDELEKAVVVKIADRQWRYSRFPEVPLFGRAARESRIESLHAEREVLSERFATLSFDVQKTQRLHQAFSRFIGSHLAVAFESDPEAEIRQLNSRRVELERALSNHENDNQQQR

[3] = biological target: T1, MukB long hinge (LH; amino acid …); assay: ITC; 100 µM MatP titrated into 10 µM LH at 25 °C; one-site model; three repeats; conditions: both partners purified
[4] = biological target: T1, MukB long hinge (LH; amino acid …); assay: native gel or EMSA; native PAGE; MatP or variants (7 µM) mixed with LH and/or 50 bp DNA at 1:1(:1), 30 min on ice; Coomassie and ethidium bromide staining; conditions: both partners purified
[5] = biological target: the molecule itself; assay: native MS; proteins buffer exchanged into 200 mM ammonium acetate pH 8.0, alone or mixed in different ratios (two or three components, with or without 50 bp DNA), 10 min on ice; remark: listed apart in the source
[6] = biological target: T2, full-length MukB^KKK (D697K D745K E753K) (E. coli, UniProt P22523 1-1486, D697K | D745K | E753K); assay: fluorescence correlation spectroscopy (FCS); titration at constant 1 nM MatP-Cy3B; 20 mM Tris-HCl pH 7.5, 50 mM NaCl, 0.3 mg/mL BSA, 2 mM DTT, 0.05% Tween-20; 22 °C; fitted to the Hill equation; conditions: both partners purified
T2 construct: MukB, E. coli, full length, with three hinge substitutions
T2 sequence (looked up): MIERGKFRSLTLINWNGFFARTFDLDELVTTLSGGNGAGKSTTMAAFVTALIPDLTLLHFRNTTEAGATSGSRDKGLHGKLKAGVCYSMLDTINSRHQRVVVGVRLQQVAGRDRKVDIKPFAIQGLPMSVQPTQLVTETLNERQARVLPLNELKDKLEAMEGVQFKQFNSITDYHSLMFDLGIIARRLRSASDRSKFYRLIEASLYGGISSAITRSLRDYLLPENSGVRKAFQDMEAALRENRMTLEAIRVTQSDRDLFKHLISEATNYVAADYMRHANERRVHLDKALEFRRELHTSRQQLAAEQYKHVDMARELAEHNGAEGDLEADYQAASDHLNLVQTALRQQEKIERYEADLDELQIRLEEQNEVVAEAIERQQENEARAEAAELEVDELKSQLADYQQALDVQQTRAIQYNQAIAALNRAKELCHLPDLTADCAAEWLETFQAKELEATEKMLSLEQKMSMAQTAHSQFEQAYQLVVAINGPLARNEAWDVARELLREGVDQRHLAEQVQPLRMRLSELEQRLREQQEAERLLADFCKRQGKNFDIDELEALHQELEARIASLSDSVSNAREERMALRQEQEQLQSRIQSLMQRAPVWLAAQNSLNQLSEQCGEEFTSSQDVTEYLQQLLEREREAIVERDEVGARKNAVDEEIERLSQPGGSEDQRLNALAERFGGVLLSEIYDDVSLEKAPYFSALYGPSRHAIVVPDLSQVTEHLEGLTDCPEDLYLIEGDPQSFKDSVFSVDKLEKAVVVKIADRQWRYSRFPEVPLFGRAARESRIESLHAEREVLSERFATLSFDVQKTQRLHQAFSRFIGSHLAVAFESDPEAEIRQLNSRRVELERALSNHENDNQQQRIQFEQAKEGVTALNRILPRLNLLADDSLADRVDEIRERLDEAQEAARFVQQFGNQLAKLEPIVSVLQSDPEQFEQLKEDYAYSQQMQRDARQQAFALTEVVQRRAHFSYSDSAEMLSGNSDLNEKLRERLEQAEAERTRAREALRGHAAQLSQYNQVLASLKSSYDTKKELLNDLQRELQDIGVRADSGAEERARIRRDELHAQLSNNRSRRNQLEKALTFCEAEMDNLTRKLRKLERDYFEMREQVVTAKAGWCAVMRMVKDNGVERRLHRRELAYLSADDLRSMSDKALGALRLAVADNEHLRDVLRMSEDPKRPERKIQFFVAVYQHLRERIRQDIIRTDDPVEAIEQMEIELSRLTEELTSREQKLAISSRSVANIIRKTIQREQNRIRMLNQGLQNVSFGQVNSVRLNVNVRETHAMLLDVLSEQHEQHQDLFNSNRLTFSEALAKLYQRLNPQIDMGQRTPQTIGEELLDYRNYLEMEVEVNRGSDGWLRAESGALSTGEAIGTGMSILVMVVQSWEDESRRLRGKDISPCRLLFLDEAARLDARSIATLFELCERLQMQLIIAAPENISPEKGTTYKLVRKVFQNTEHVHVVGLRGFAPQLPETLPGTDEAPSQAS

[7] = biological target: T3, full-length MukB (wild type) (E. coli, UniProt P22523 1-1486); assay: as above; conditions: both partners purified
T3 construct: MukB, E. coli, full length; also called WT MukB; unlabeled MukB; source: purified as described (Zawadzka et al., 2018)
T3 sequence (looked up): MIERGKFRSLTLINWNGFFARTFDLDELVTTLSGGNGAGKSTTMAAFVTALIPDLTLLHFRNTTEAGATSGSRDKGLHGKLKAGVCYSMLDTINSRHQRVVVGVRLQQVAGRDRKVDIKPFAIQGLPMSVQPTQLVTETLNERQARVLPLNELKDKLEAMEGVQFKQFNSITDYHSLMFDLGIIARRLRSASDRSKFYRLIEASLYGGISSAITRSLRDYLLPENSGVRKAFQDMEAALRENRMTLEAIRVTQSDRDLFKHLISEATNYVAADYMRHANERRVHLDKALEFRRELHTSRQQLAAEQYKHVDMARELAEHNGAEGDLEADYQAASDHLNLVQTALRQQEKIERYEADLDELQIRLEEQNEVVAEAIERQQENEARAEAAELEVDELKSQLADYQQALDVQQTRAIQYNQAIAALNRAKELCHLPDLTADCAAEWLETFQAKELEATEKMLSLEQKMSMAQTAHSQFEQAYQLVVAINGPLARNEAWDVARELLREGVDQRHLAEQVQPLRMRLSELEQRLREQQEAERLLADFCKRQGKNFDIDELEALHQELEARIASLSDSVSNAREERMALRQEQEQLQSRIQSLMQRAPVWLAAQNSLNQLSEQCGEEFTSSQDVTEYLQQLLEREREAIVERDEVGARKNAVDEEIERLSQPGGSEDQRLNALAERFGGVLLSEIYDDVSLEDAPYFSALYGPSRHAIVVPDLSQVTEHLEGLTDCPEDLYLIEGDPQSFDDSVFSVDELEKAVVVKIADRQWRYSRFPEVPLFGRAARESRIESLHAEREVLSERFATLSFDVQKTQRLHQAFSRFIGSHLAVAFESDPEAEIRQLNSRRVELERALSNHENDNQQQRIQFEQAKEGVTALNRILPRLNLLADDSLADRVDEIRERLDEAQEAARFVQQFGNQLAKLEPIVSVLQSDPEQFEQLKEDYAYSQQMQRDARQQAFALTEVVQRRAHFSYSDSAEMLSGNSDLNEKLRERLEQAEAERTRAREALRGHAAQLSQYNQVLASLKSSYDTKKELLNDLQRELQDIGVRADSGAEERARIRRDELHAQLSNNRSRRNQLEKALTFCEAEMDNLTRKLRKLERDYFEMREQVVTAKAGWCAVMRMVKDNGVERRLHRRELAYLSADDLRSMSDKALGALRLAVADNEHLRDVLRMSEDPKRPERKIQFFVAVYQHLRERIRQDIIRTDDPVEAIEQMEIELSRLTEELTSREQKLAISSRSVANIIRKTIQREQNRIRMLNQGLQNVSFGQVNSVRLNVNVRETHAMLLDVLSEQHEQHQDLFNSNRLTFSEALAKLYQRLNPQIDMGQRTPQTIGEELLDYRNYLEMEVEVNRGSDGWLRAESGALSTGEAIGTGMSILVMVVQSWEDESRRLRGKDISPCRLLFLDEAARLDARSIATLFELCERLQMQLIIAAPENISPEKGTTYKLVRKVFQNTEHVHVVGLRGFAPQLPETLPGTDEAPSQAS

[8] = biological target: T3, full-length MukB (wild type); assay: fluorescence correlation spectroscopy (FCS); competition: MatP-Cy3B fixed at 1 nM, MukB at 400 nM; ParC variants at 10-fold, unlabeled MatP at 50-fold, DNA at 2.5-fold molar excess; conditions: both partners purified

B1: MatPΔ18C (1–132), C-terminal 6xHis-tag (domain or fragment, E. coli, UniProt P0A8N0 1-132, looked up)
chain: MKYQQLENLESGWKWKYLVKKHREGELITRYIEASAAQEAVDVLLSLENEPVLVNGWIDKHMNPELVNRMKQTIRARRKRHFNAEHQHTRKKSIDLEFIVWQRLAGLAQRRGKTLSETIVQLIEDAENKEKY
notes: MatP, E. coli, residues 1-132 (deletion of the 18 C-terminal residues); also called MatPΔ18C-His; MatP2; source: overexpressed, purified as previously published (Nolivos et al., 2016) with an added SEC step; not shown: His6, C-terminal, kept
stoichiometry N [1]: 2
stoichiometry N [2]: 1 MatP dimer per LH dimer
Kd [3]: 590 nM
dH [3]: -16.8 kcal/mol
stoichiometry N [3]: 0.96

B2: MatP^4A (K71A, Q72A, R75A, and R77A) (domain or fragment, E. coli, UniProt P0A8N0 1-132, looked up)
chain: MKYQQLENLESGWKWKYLVKKHREGELITRYIEASAAQEAVDVLLSLENEPVLVNGWIDKHMNPELVNRMAATIAAARKRHFNAEHQHTRKKSIDLEFIVWQRLAGLAQRRGKTLSETIVQLIEDAENKEKY
notes: MatP, E. coli, residues 1-132 (MatPΔ18C) with four substitutions; source: site-directed mutagenesis, purified using the same protocol as MatP
binding result [4]: binds
stoichiometry N [5]: 2

B3: Cy3B-labeled MatP-Cys-His (domain or fragment, E. coli)
chain: MKYQQLENLESGWKWKYLVKKHREGELITRYIEASAAQEAVDVLLSLENEPVLVNGWIDKHMNPELVNRMKQTIRARRKRHFNAEHQHTRKKSIDLEFIVWQRLAGLAQRRGKTLSETIVQLIEDAENKEKYSDPNSSSVDKLCAAALE
modifications: Cy3B maleimide on the single cysteine engineered into the C-terminal linker
notes: MatP, E. coli, residues 1-132 (MatPΔ18C); C-terminal linker between MatP and its 6xHis-tag with the engineered cysteine; Labeling efficiency 89%; also called MatP-Cy3B; Cy3B-MatP; source: purified as MatP, labeled with Cy3B maleimide, excess dye removed by SEC
Kd [6]: ~1600 nM
Kd [7]: ~250 nM

B4: full-length ParC, N-terminal 6xHis-tag (enzyme, E. coli, UniProt P0AFI2 1-752, looked up)
chain: MSDMAERLALHEFTENAYLNYSMYVIMDRALPFIGDGLKPVQRRIVYAMSELGLNASAKFKKSARTVGDVLGKYHPHGDSACYEAMVLMAQPFSYRYPLVDGQGNWGAPDDPKSFAAMRYTESRLSKYSELLLSELGQGTADWVPNFDGTLQEPKMLPARLPNILLNGTTGIAVGMATDIPPHNLREVAQAAIALIDQPKTTLDQLLDIVQGPDYPTEAEIITSRAEIRKIYENGRGSVRMRAVWKKEDGAVVISALPHQVSGARVLEQIAAQMRNKKLPMVDDLRDESDHENPTRLVIVPRSNRVDMDQVMNHLFATTDLEKSYRINLNMIGLDGRPAVKNLLEILSEWLVFRRDTVRRRLNYRLEKVLKRLHILEGLLVAFLNIDEVIEIIRNEDEPKPALMSRFGLTETQAEAILELKLRHLAKLEEMKIRGEQSELEKERDQLQGILASERKMNNLLKKELQADAQAYGDDRRSPLQEREEAKAMSEHDMLPSEPVTIVLSQMGWVRSAKGHDIDAPGLNYKAGDSFKAAVKGKSNQPVVFVDSTGRSYAIDPITLPSARGQGEPLTGKLTLPPGATVDHMLMESDDQKLLMASDAGYGFVCTFNDLVARNRAGKALITLPENAHVMPPVVIEDASDMLLAITQAGRMLMFPVSDLPQLSKGKGNKIINIPSAEAARGEDGLAQLYVLPPQSTLTIHVGKRKIKLRPEELQKVTGERGRRGTLMRGLQRIDRVEIDSPRRASSGDSEE
notes: ParC subunit of topoisomerase IV, E. coli, full length; also called His-ParC; ParC2; source: overexpressed, purified as previously published (Nolivos et al., 2016) with an added SEC step; not shown: His6, N-terminal, kept
stoichiometry N [1]: 2
fold decrease in MatP-Cy3B binding to MukB at 10-fold excess of competitor [8]: 3 fold
